Experimental data from the supplement of paper PMC10567573.

B1: RBBP5 (parent)
chain: TGTSNTTAIKSIEFARKGSCFLIN

Variants of: B1
Assay: protein stability index of a GFP-peptide fusion (GPS, HEK-293T) (PSI 1-6); higher = more stable
Settings: c terminus: a fixed tail appended
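Note: lentivirally expressed fusions sorted by FACS into six bins by GFP to DsRed ratio, PSI derived from sequencing read proportions per bin multiplied by bin number.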

Variant	protein stability index
TGTSNTTAIKGIEFARKGSCFLIN [S11G]	2.12
TGTSNTTAIKTIEFARKGSCFLIN [S11T]	2.1
TGTSNTTAIKCIEFARKGSCFLIN [S11C]	1.74
TGTSNTTAIKVIEFARKGSCFLIN [S11V]	2.48
TGTSNTTAIKDIEFARKGSCFLIN [S11D]	2.6
TGTSNTTAIKRIEFARKGSCFLIN [S11R]	2.12
TGTSNTTAIKKIEFARKGSCFLIN [S11K]	2.13
TGTSNTTAIKQIEFARKGSCFLIN [S11Q]	2.74
TGTSNTTAIKYIEFARKGSCFLIN [S11Y]	1.32
TGTSNTTAIKWIEFARKGSCFLIN [S11W]	2.77
TGTSNTTAIKAIEFARKGSCFLIN [S11A]	2.18
TGTSNTTAIKPIEFARKGSCFLIN [S11P]	2.61
TGTSNTTAIKNIEFARKGSCFLIN [S11N]	2.92
TGTSNTTAIKMIEFARKGSCFLIN [S11M]	2.09
TGTSNTTAIKHIEFARKGSCFLIN [S11H]	3.02
TGTSNTTAIKIIEFARKGSCFLIN [S11I]	3.31
TGTSNTTAIKEIEFARKGSCFLIN [S11E]	2.23
TGTSNTTAIKLIEFARKGSCFLIN [S11L]	2.5
TGTSNTTAIKFIEFARKGSCFLIN [S11F]	2.45
TGTSNTTAIKSIEFAYKGSCFLIN [R16Y]	2.49
TGTSNTTAIKSIEFAFKGSCFLIN [R16F]	2.26
TGTSNTTAIKSIEFAIKGSCFLIN [R16I]	3.29
TGTSNTTAIKSIEFATKGSCFLIN [R16T]	2.26
TGTSNTTAIKSIEFALKGSCFLIN [R16L]	3.26

Variant	protein stability index
TGTSNTTAIKSIEFAVKGSCFLIN [R16V]	1.99
TGTSNTTAIKSIEFAPKGSCFLIN [R16P]	2.34
TGTSNTTAIKSIEFAAKGSCFLIN [R16A]	1.89
TGTSNTTAIKSIEFAGKGSCFLIN [R16G]	2.42
TGTSNTTAIKSIEFAKKGSCFLIN [R16K]	2.76
TGTSNTTAIKSIEFAEKGSCFLIN [R16E]	3
TGTSNTTAIKSIEFAHKGSCFLIN [R16H]	2.15
TGTSNTTAIKSIEFASKGSCFLIN [R16S]	2.44
TGTSNTTAIKSIEFANKGSCFLIN [R16N]	3.21
TGTSNTTAIKSIEFAMKGSCFLIN [R16M]	1.75
TGTSNTTAIKSIEFAWKGSCFLIN [R16W]	1.74
TGTSNTTAIKSIEFAQKGSCFLIN [R16Q]	2.73
TGTSNTTAIKSIEFACKGSCFLIN [R16C]	1.77
TGTSNTTAIKSIEFADKGSCFLIN [R16D]	2.7
TGTSNTTAISSIEFARKGSCFLIN [K10S]	2.93
TGTSNTTAIGSIEFARKGSCFLIN [K10G]	2.19
TGTSNTTAIASIEFARKGSCFLIN [K10A]	1.64
TGTSNTTAIPSIEFARKGSCFLIN [K10P]	2.38
TGTSNTTAINSIEFARKGSCFLIN [K10N]	1.86
TGTSNTTAIESIEFARKGSCFLIN [K10E]	2.62
TGTSNTTAIISIEFARKGSCFLIN [K10I]	2.15
TGTSNTTAIDSIEFARKGSCFLIN [K10D]	2.08
TGTSNTTAIMSIEFARKGSCFLIN [K10M]	1.94
TGTSNTTAIYSIEFARKGSCFLIN [K10Y]	3.11

Variant	protein stability index
TGTSNTTAICSIEFARKGSCFLIN [K10C]	2.38
TGTSNTTAIVSIEFARKGSCFLIN [K10V]	1.93
TGTSNTTAIHSIEFARKGSCFLIN [K10H]	2.77
TGTSNTTAIQSIEFARKGSCFLIN [K10Q]	2.82
TGTSNTTAIFSIEFARKGSCFLIN [K10F]	2.9
TGTSNTTAITSIEFARKGSCFLIN [K10T]	1.77
TGTSNTTAILSIEFARKGSCFLIN [K10L]	2.74
TGTSNTTAIRSIEFARKGSCFLIN [K10R]	2.29
TGTSNTTAIKSIEFRRKGSCFLIN [A15R]	2.22
TGTSNTTAIKSIEFHRKGSCFLIN [A15H]	2.39
TGTSNTTAIKSIEFIRKGSCFLIN [A15I]	1.63
TGTSNTTAIKSIEFDRKGSCFLIN [A15D]	2.9
TGTSNTTAIKSIEFYRKGSCFLIN [A15Y]	1.74
TGTSNTTAIKSIEFWRKGSCFLIN [A15W]	2.23
TGTSNTTAIKSIEFGRKGSCFLIN [A15G]	2.38
TGTSNTTAIKSIEFCRKGSCFLIN [A15C]	1.89
TGTSNTTAIKSIEFVRKGSCFLIN [A15V]	1.66
TGTSNTTAIKSIEFNRKGSCFLIN [A15N]	2.67
TGTSNTTAIKSIEFPRKGSCFLIN [A15P]	2.46
TGTSNTTAIKSIEFKRKGSCFLIN [A15K]	2.42
TGTSNTTAIKSIEFLRKGSCFLIN [A15L]	2.58
TGTSNTTAIKSIEFMRKGSCFLIN [A15M]	1.94
TGTSNTTAIKSIEFTRKGSCFLIN [A15T]	1.79
TGTSNTTAIKSIEFQRKGSCFLIN [A15Q]	2.51

Variant	protein stability index
TGTSNTTAIKSIEFSRKGSCFLIN [A15S]	2.09
TGTSNTTAIKSIEFERKGSCFLIN [A15E]	2.44
TGTSNTTAIKSIEFFRKGSCFLIN [A15F]	2.52
TGTSNTTQIKSIEFARKGSCFLIN [A8Q]	2.21
TGTSNTTMIKSIEFARKGSCFLIN [A8M]	2.21
TGTSNTTYIKSIEFARKGSCFLIN [A8Y]	2.22
TGTSNTTPIKSIEFARKGSCFLIN [A8P]	2.69
TGTSNTTRIKSIEFARKGSCFLIN [A8R]	1.62
TGTSNTTLIKSIEFARKGSCFLIN [A8L]	2.17
TGTSNTTTIKSIEFARKGSCFLIN [A8T]	2.68
TGTSNTTNIKSIEFARKGSCFLIN [A8N]	2.56
TGTSNTTSIKSIEFARKGSCFLIN [A8S]	2.01
TGTSNTTWIKSIEFARKGSCFLIN [A8W]	2.62
TGTSNTTVIKSIEFARKGSCFLIN [A8V]	1.58
TGTSNTTAIKSFEFARKGSCFLIN [I12F]	2
TGTSNTTAIKSVEFARKGSCFLIN [I12V]	2.6
TGTSNTTAIKSEEFARKGSCFLIN [I12E]	3.5
TGTSNTTAIKSCEFARKGSCFLIN [I12C]	2.67
TGTSNTTAIKSLEFARKGSCFLIN [I12L]	1.78
TGTSNTTAIKSGEFARKGSCFLIN [I12G]	2.4
TGTSNTTAIKSWEFARKGSCFLIN [I12W]	2.4
TGTSNTTAIKSHEFARKGSCFLIN [I12H]	2.94
TGTSNTTAIKSMEFARKGSCFLIN [I12M]	2.61
TGTSNTTAIKSNEFARKGSCFLIN [I12N]	2.67

Variant	protein stability index
TGTSNTTAIKSTEFARKGSCFLIN [I12T]	2.61
TGTSNTTAIKSYEFARKGSCFLIN [I12Y]	2.12
TGTSNTTAIKSPEFARKGSCFLIN [I12P]	3
TGTSNTTAIKSREFARKGSCFLIN [I12R]	2.57
TGTSNTTAIKSDEFARKGSCFLIN [I12D]	2.79
TGTSNTTAIKSSEFARKGSCFLIN [I12S]	2.67
TGTSNTTAIKSQEFARKGSCFLIN [I12Q]	3.29
TGTSNTTAIKSKEFARKGSCFLIN [I12K]	2.23
TGTSNTTAIKSAEFARKGSCFLIN [I12A]	2.94
TGTSNTTAIKSIPFARKGSCFLIN [E13P]	1.75
TGTSNTTAIKSILFARKGSCFLIN [E13L]	2.38
TGTSNTTAIKSIIFARKGSCFLIN [E13I]	2.89
TGTSNTTAIKSIKFARKGSCFLIN [E13K]	2.19
TGTSNTTAIKSISFARKGSCFLIN [E13S]	2.38
TGTSNTTAIKSIAFARKGSCFLIN [E13A]	1.92
TGTSNTTAIKSIFFARKGSCFLIN [E13F]	2.75
TGTSNTTAIKSIHFARKGSCFLIN [E13H]	2.4
TGTSNTTAIKSIWFARKGSCFLIN [E13W]	2.23
TGTSNTTAIKSICFARKGSCFLIN [E13C]	1.97
TGTSNTTAIKSIRFARKGSCFLIN [E13R]	1.72
TGTSNTTAIKSIMFARKGSCFLIN [E13M]	2.15
TGTSNTTAIKSIDFARKGSCFLIN [E13D]	2.32
TGTSNTTAIKSIGFARKGSCFLIN [E13G]	2.11
TGTSNTTAIKSIYFARKGSCFLIN [E13Y]	2.6

Variant	protein stability index
TGTSNTTAIKSIQFARKGSCFLIN [E13Q]	1.67
TGTSNTTAIKSIVFARKGSCFLIN [E13V]	1.54
TGTSNTTAIKSITFARKGSCFLIN [E13T]	2.31
TGTSNTTAIKSINFARKGSCFLIN [E13N]	1.75
TGTSNTTAIKSIEQARKGSCFLIN [F14Q]	3.12
TGTSNTTAIKSIEDARKGSCFLIN [F14D]	3.15
TGTSNTTAIKSIEVARKGSCFLIN [F14V]	2.86
TGTSNTTAIKSIEKARKGSCFLIN [F14K]	3.17
TGTSNTTAIKSIEPARKGSCFLIN [F14P]	3.05
TGTSNTTAIKSIENARKGSCFLIN [F14N]	3.17
TGTSNTTAIKSIETARKGSCFLIN [F14T]	2.97
TGTSNTTAIKSIEEARKGSCFLIN [F14E]	3.84
TGTSNTTAIKSIEMARKGSCFLIN [F14M]	2.69
TGTSNTTAIKSIEWARKGSCFLIN [F14W]	2.07
TGTSNTTAIKSIESARKGSCFLIN [F14S]	3.42
TGTSNTTAIKSIELARKGSCFLIN [F14L]	2.51
TGTSNTTAIKSIECARKGSCFLIN [F14C]	2.53
TGTSNTTAIKSIERARKGSCFLIN [F14R]	3.05
TGTSNTTAIKSIEHARKGSCFLIN [F14H]	2.73
TGTSNTTAIKSIEGARKGSCFLIN [F14G]	2.76
TGTSNTTAIKSIEYARKGSCFLIN [F14Y]	2.38
TGTSNTTAIKSIEAARKGSCFLIN [F14A]	3.06
TGTSNTTAIKSIEIARKGSCFLIN [F14I]	2.64
TGTSNTTAIKSIEFARWGSCFLIN [K17W]	2.11

Variant	protein stability index
TGTSNTTAIKSIEFARGGSCFLIN [K17G]	2.24
TGTSNTTAIKSIEFARMGSCFLIN [K17M]	1.73
TGTSNTTAIKSIEFAREGSCFLIN [K17E]	2.6
TGTSNTTAIKSIEFARCGSCFLIN [K17C]	1.8
TGTSNTTAIKSIEFARPGSCFLIN [K17P]	2.3
TGTSNTTAIKSIEFARSGSCFLIN [K17S]	2.47
TGTSNTTAIKSIEFARAGSCFLIN [K17A]	2.24
TGTSNTTAIKSIEFARIGSCFLIN [K17I]	1.29
TGTSNTTAIKSIEFARNGSCFLIN [K17N]	2.63
TGTSNTTAIKSIEFARLGSCFLIN [K17L]	1.75
TGTSNTTAIKSIEFARDGSCFLIN [K17D]	2.7
TGTSNTTAIKSIEFARYGSCFLIN [K17Y]	2.22
TGTSNTTAIKSIEFARTGSCFLIN [K17T]	2.46
TGTSNTTAIKSIEFARRGSCFLIN [K17R]	2.7
TGTSNTTAIKSIEFARVGSCFLIN [K17V]	1.7
TGTSNTTAIKSIEFARHGSCFLIN [K17H]	2.33
TGTSNTTAIKSIEFARFGSCFLIN [K17F]	2.17
TGTSNTTAIKSIEFARQGSCFLIN [K17Q]	2.5
TGTSNTTAIKSIEFARKESCFLIN [G18E]	2.62
TGTSNTTAIKSIEFARKHSCFLIN [G18H]	1.74
TGTSNTTAIKSIEFARKASCFLIN [G18A]	1.9
TGTSNTTAIKSIEFARKISCFLIN [G18I]	2.2
TGTSNTTAIKSIEFARKDSCFLIN [G18D]	2.89
TGTSNTTAIKSIEFARKCSCFLIN [G18C]	1.63

Variant	protein stability index
TGTSNTTAIKSIEFARKFSCFLIN [G18F]	1.99
TGTSNTTARKSIEFARKGSCFLIN [I9R]	2.34
TGTSNTTAHKSIEFARKGSCFLIN [I9H]	2.35
TGTSNTTAGKSIEFARKGSCFLIN [I9G]	2.37
TGTSNTTAPKSIEFARKGSCFLIN [I9P]	2.61
TGTSNTTANKSIEFARKGSCFLIN [I9N]	2.44
TGTSNTTASKSIEFARKGSCFLIN [I9S]	2.12
TGTSNTTAMKSIEFARKGSCFLIN [I9M]	2.67
TGTSNTTAAKSIEFARKGSCFLIN [I9A]	2.48
TGTSNTTATKSIEFARKGSCFLIN [I9T]	2.92
TGTSNTTAEKSIEFARKGSCFLIN [I9E]	2.91
TGTSNTTAFKSIEFARKGSCFLIN [I9F]	1.98
TGTSNTTAKKSIEFARKGSCFLIN [I9K]	2.47
TGTSNTTAWKSIEFARKGSCFLIN [I9W]	1.5
TGTSNTTACKSIEFARKGSCFLIN [I9C]	2.28
TGTSNTTADKSIEFARKGSCFLIN [I9D]	2.86
TGTSNTTAQKSIEFARKGSCFLIN [I9Q]	2.62
TGTSNTTAVKSIEFARKGSCFLIN [I9V]	2.76
TGTSNTTALKSIEFARKGSCFLIN [I9L]	2.03
TGTSNTTAYKSIEFARKGSCFLIN [I9Y]	1.88
